Experimental data reported in article PMC12284214, “Structural basis for the activity regulation of Medicago calcium channel CNGC15” (Cell Discovery, 2025).

Target: the molecule itself
Assay: cryo-EM structure; MtCNGC15b alone, in 25 mM Tris pH 8.0, 150 mM NaCl, 0.006% GDN; 3.1 Å; also with 5 mM cGMP (no structural change)

B1: Medicago truncatula CNGC15b (natural protein, M. truncatula, UniProt G7JND3 1-620, looked up)
chain: MVTPKFMSDLFEGDHLELAKLTSPNGDNGIKFNEKHVAPRVLSRVFSEDYKRVKRRRRIFDPRGQTIHQWNKIFLVACLISLFVDPLFFYLPIVQDEVCIDIGIAVEVFLIIIRSIADVFYVIHIFMRFHTAYVAPSSRVFGRGELVIDSSKIASRYLHKGFFLDFIAALPLPQVLIWIVIPNLGGSTIANTKNVLRFIIIIQYLPRLFLIFPLSSQIVKATGVVTETAWAGAAYNLMLYMLASHVLGACWYLLSIERQEACWKSVCKLEESSCQFDFFDCNMVKDSLRVSWFVTSNVTNLCSPNSLFYQFGIYGDAVTSKVTTSAFFNKYFFCLWWGLRNLSSLGQGLLTSTFVGEIMFAIVIATLGLVLFALLIGNMQTYLQSTTVRLEEWRVKRTDTEQWMHHRQLPQELRQSVRKYDQYKWIATRGVDEESLLRGLPLDLRRDIKRHLCLELVRRVPLFDAMDERMLDAICERLKPALCTENTYLVREGDPVNEMLFIIRGNLDSYTTDGGRTGFFNSCRIGPGDFCGEELLTWALDPRPTMVIPSSTRTVKAISEVEAFALIAEDLKFVASQFRRLHSKQLRNKLRFHSHQWRTWAACFIQVAWRRTIQEKKGSC
notes: residues 58-385 were modelled in the apo map; In the functional rows the protein was made from cRNA in Xenopus oocytes with that signal peptide; also called MtCNGC15b; MtCNGC15; source: HEK293F, transfected; purified (anti-Flag M2, Strep-Tactin, SEC) in GDN; not shown: Flag, C-terminal, kept; TwinStrep, C-terminal, kept
  binding result: binds
